Biological target: T1, GFP-PSD-95 (green fluorescent protein-tagged postsynaptic density-95) (UniProt P31016 1-724)
T1 construct: postsynaptic density-95 (PSD-95); Printed as GFP-PSD-95 in the results and PSD-95-GFP in the methods; also called PSD-95-GFP; source: HEK293T, transfected, in lysate
Experiment: co-IP; HEK293T cells cotransfected with HA-Prickle2 and GFP-PSD-95, with or without FLAG-Vangl2 WT or ΔETSV; IP of the lysate with α-GFP Abs, western blot; 1% NP-40, 150 mM NaCl, 50 mM Tris-Cl pH 7.5, 2 mM EDTA, 10% glycerol, on ice or at 4 °C; precipitated Prickle2 (IP/Input) divided by the relative amount of precipitated PSD-95-GFP
Settings: partners not purified

T1 sequence (P31016 whole entry): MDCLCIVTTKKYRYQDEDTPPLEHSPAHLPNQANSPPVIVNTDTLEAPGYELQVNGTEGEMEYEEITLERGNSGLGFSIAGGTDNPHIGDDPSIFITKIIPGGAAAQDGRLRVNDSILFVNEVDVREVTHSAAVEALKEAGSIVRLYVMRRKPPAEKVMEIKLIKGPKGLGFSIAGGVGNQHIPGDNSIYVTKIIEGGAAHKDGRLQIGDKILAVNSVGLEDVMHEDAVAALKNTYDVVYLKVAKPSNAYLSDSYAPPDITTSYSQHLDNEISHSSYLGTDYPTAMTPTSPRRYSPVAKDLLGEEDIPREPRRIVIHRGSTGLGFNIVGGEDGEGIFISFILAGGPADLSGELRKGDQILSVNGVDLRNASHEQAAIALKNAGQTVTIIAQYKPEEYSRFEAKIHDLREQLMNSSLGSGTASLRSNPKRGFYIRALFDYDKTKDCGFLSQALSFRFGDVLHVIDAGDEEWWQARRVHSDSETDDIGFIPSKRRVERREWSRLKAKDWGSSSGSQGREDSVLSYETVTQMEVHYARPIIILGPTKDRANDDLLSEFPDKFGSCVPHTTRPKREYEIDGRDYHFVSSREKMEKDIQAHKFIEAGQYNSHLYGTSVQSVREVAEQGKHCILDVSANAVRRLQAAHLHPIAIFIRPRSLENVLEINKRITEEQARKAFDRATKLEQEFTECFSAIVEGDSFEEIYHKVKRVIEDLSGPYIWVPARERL

B1: hemagglutinin (HA)-Prickle2 (natural protein, UniProt Q80Y24 1-845, looked up)
chain: MVTVMPLEMEKTISKLMFDFQRSSTSDDDSGCALEEYAWVPPGLKPEQVHQYYSCLPEEKVPYVNSAGEKLRIKQLLHQLPPHDNEVRYCNSLDEEEKRELKLFSNQRKRENLGRGNVRPFPVTMTGAICEQCGGQIKGGDIAVFASRAGHGICWHPPCFVCTVCNELLVDLIYFYQDGKIYCGRHHAECLKPRCAACDEIIFADECTEAEGRHWHMRHFCCFECETVLGGQRYIMKEGRPYCCHCFESLYAEYCDTCAQHIGIDQGQMTYDGQHWHATETCFCCAHCKKSLLGRPFLPKQGQIFCSRACSAGEDPNGSDSSDSAFQNARAKESRRSAKIGKNKGKTEEAMLNQHSQLQVSSNRLSADVDPLSVQMDLLSLSSQTPSLNRDPIWRSREEPFHYGNKMEQNQSQSPLQLLSQCNIRTSYSPGGQGAGAQPDMWAKHFSNPKRSSSMALKGHGGSFIQECREDYYPGRLMSQESYSDMSSQSFNETRGSIPVPKYEEEEEEEEGGISTQQCRPRRPLSSLKYTEDMTPTEQTPRGSMESLALSNATGLSAEGGAKRQEHLSRFSMPDLSKDSGMNVSEKLSNMGTLNSSMQFRSAESVRSLLSAQQYQEMEGNLHQLSNPLGYRDLQSHGRMHQSFDFDGGIASSKLPGQEGVHIQPMSERTRRRTTSRDDNRRFRPHRSRRSRRSRSDNALHLASEREVIARLKERPPLRAREDYDQFMRQRSFQESLGQGSRRDLYSQCPRTVSDLALQNAFGERWGPYFTEYDWCSTCSSSSESDNEGYFLGEPIPQPARLRYVTSDELLHKYSSYGVPKSSTLGGRGQLHSRKRQKSKNCIIS
notes: Prickle2; source: HEK293T, transfected, in lysate
Question: With B1 as the binder, how does the “fold increase of the precipitated amount of Prickle2 with FLAG-Vangl2 co-expressed, against without Vangl2” value read?
Answer: Its value is 63.6 fold.
